Patent publication US8703915B2, “Mutant proteins and methods for producing them” (Heptares Therapeutics Limited, priority 2009, dated 2014)
Numbering of substitutions follows the chain as printed. Numbers in names are those of the source.

B1: CRF1 I163A: human CRF1 mutant, I2.58 to alanine (I163A) (protein, UniProt P34998 24-415, looked up, variant I163A)
Corticotropin-releasing …: SLQDQHCESLSLASNISGLQCNASVDLIGTCWPRSPAGQLVVRPCPAFFYGVRYNTTNNGYRECLANGSWAARVNYSECQEILNEEKKSKVHYHVAVIINYLGHCISLVALLVAFVLFLRLRSIRCLRNIIHWNLISAFALRNATWFVVQLTMSPEVHQSNVGWCRLVTAAYNYFHVTNFFWMFGEGCYLHTAIVLTYSTDRLRKWMFICIGWGVPFPIIVAWAIGKLYYDNEKCWFGKRPGVYTDYIYQGPMILVLLINFIFLFNIVRILMTKLRASTTSETIQYRKAVKATLVLLPLLGITYMLFFVNPGEDEVSRVVFIYFNSFLESFQGFFVSVFYCFLNSEVRSAIRKRWHRWQDKHSIRARVARAMSIPTSPTRVSFHSIKQSTAV
B2: OX2Y91L (protein, UniProt O43614 1-444, looked up, variant Y91L)
Orexin receptor type 2: MSGTKLEDSPPCRNWSSASELNETQEPFLNPTDYDDEEFLRYLWREYLHPKEYEWVLIAGYIIVFVVALIGNVLVCVAVWKNHHMRTVTNLFIVNLSLADVLVTITCLPATLVVDITETWFFGQSLCKVIPYLQTVSVSVSVLTLSCIALDRWYAICHPLMFKSTAKRARNSIVIIWIVSCIIMIPQAIVMECSTVFPGLANKTTLFTVCDERWGGEIYPKMYHICFFLVTYMAPLCLMVLAYLQIFRKLWCRQIPGTSSVVQRKWKPLQPVSQPRGPGQPTKSRMSAVAAEIKQIRARRKTARMLMIVLLVFAICYLPISILNVLKRVFGMFAHTEDRETVYAWFTFSHWLVYANSAANPIIYNFLSGKFREEFKAAFSCCCLGVHHRQEDRLTRGRTSTESRKSLTTQISNFDNISKLSEQVVLTSISTLPAANGAGPLQNW

Tests used:
CRF1 [1] = target: T1, CRF1 (Homo sapiens, UniProt P34998, I163A); experiment: Thermostability of CRF1 bound to antagonist CP-376395, purified in DDM; format: physicochemical; settings: antagonist CP-376395 bound, versus CRF1 WT
T1 construct: made in house; host or cells: HEK293T cells, transient
T1 sequence (P34998 24-415 I163A): B1 Corticotropin-releasing …
Experimental: (§1) In order to stabilise CRF1 in the antagonist conformation, a systematic alanine-scan was performed to identify mutations that stabilise receptors bound to the antagonist ligand CP-376395. Mutating I2.58 to alanine (I163A) confers significant stabilisation in CRF1, increasing the thermal stability by 3.9 (±0.5)° C. (FIG. 15).
(§2) CRF1 receptors were transiently expressed in HEK293T cells on 10 cm plates using GeneJuice transfection reagent used according to manufacturers guidelines.
(§3) Cells expressing CRF1 were harvested in PBS approximately 40 hours post-transfection and re-suspended in 950 μl Re-suspension buffer (50 mM Tris-HCl, 150 mM NaCl, 2× Complete EDTA-free Protease inhibitor cocktail (Roche), pH7.5). Cells were incubated with 120 nM CP-376395 and 30 nM [^3H]-CP-376395 at 37° C. for 2 hours before transferring to ice for 5 minutes. The receptors were solubilised by the addition of 1% DDM and incubated at 4° C. for 1 hour with gentle agitation. Insoluble material was removed by centrifugation at 16000×g for 10 minutes at 4° C. The solubilised receptors were partially purified with Ni-NTA agarose (Qiagen). Ni-NTA resin was equilibrated in Equilibration buffer (50 mM Tris-HCl, 150 mM NaCl, 2× Complete EDTA-free Protease inhibitor cocktail (Roche), 0.025% DDM, pH7.5) and 400 μl of a 50:50 resin slurry was added to each sample. Resin slurries were incubated at 4° C. for 1 hour 30 minutes with gentle agitation to bind receptors. Resin slurries were then transferred to a batch column filter plate (Chromabond) and centrifuged at 1000×g for 1 minute, discarding the flow-through. Resin was washed twice with 1 ml of Wash buffer (50 mM Tris-HCl, 150 mM NaCl, 2× Complete EDTA-free Protease inhibitor cocktail (Roche), 0.025% DDM, 20 mM Imidazole, pH7.5) and then eluted in 1 ml of Elution buffer (50 mM Tris-HCl, 150 mM NaCl, 2× Complete EDTA-free Protease inhibitor cocktail (Roche), 0.025% DDM, 100 mM histidine, 30 nM [^3H]-CP-376395, 120 nM CP-376395, pH7.5) by resuspension at 4° C. for 30 minutes. Eluted samples were used directly in the thermostability assay. […]

CRF1 [2] = experiment: as above; format: physicochemical, human; settings: antagonist-bound state (CP-376395), purified in DDM
Experimental: as §1, §2, §3

OX2 receptor [3] = experiment: Thermostability of OX2 receptor bound to antagonist EMPA; format: physicochemical, human; settings: bound to antagonist EMPA
Experimental: (§4) Transiently transfected mammalian cells expressing M4 were harvested about 40 hours post transfection and the receptors were solubilised in 50 mM Tris pH 7.5/250 mM NaCl/1% DDM/EDTA free protease inhibitor mix for 1 hour rotating at 4° C. The solubilised lysate was then cleared by centrifugation at 13000 rpm for 15 minutes at 4° C. The solubilised receptors were then purified on Ni-NTA beads and eluted with 100 mM histidine. The eluted receptor was used in radioligand binding assay. Thermostability of M4 was measured using 25 μL of purified receptor mixed with 95 μL of 12 nM [^3H]-NMS (final concentration of 10 nM). The sample was incubated for 60 min at 4° C., then 30 min at the specified temperature and then 30 min at 4° C. Receptor bound and free radioligand were separated using a 96-well plate gel filtration assay.
(§5) A tandem alanine and leucine scanning mutagenesis strategy was used to identify mutations that enhanced the thermostability of OX2 bound to the small-molecule antagonist EMPA.
(§6) Thermostability assays were preformed on partially purified receptors as described for M4, with the following amendments. Cell lysates were solubilised in 50 mM Tris pH7.4, 150 mM NaCl, 1% DDM supplemented with 1× complete EDTA free protease inhibitor cocktail (Roche). Radioligand binding reactions were set up using 1/10 volume eluted receptor mixed with 20 nM ^3H-EMPA (final concentration) per temperature point.

OX2 receptor [4] = target: T2, OX2 receptor (Homo sapiens, UniProt O43614, F28L/I308V/Y91L); experiment: as above; format: physicochemical; settings: antagonist EMPA bound, compared to WT OX2
T2 construct: made in house; host or cells: transiently transfected mammalian cells (HEK293T inferred from 'as described for M4')
T2 sequence (O43614 1-444 F28L/Y91L/I308V): B2 Orexin receptor type 2 with F28L, I308V
Experimental: as §4, §5, §6

| Molecule | increase of thermal stability (CRF1 [1]) | Tm (CRF1 [2]) [°C] | Tm (OX2 receptor [3]) [°C] | increase of Tm (OX2 receptor [4]) [°C] |
| --- | --- | --- | --- | --- |
| B1 | 3.9 (±0.5) ° C. | 30.7 | – | – |
| B2 | – | – | 29.69 | 1 |
